In data set [1] the test system is full-length wildtype mAKAP (GFP-tagged) expressed in HEK293 cells.
Data set [2] has as its system full-length mAKAP mutant with an internal deletion of residues 2053-2073 comprising the PKA binding site (ΔPKA).
Data set [3] concerns T1, myc-tagged rat mAKAP 1286-2083 (lacking the PP2A binding site).
T1 sequence: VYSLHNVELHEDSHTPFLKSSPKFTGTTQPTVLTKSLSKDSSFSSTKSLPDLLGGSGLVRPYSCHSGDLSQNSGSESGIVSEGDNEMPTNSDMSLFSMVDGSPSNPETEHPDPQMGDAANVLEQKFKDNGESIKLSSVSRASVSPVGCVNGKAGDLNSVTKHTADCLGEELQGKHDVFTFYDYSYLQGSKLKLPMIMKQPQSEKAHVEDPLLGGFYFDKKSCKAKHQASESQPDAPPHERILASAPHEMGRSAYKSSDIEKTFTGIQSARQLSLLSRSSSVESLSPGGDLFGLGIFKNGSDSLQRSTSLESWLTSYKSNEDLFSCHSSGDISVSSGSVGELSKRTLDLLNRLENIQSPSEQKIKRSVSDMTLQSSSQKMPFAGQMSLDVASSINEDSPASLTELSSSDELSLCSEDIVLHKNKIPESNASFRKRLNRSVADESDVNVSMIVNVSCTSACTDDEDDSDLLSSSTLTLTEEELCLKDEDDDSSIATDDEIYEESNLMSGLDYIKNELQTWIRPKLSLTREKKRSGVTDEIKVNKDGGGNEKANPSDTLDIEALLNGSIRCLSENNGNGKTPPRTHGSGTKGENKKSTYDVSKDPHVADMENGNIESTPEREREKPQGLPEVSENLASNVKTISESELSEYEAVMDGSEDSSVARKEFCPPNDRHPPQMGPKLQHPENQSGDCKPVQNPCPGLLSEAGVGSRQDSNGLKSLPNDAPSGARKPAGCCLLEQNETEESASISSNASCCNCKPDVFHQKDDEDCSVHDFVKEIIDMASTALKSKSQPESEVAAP

Data set [4] has as its system T2, myc-tagged rat mAKAP PP2A Binding Domain (myc-PBD, rat mAKAP aa 2134-2314).
T2 sequence: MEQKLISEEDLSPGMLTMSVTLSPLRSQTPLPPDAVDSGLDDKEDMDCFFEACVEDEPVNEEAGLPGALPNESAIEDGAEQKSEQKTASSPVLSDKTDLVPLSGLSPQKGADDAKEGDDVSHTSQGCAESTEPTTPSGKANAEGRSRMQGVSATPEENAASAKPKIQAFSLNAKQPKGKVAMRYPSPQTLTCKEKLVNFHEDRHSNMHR

Data set [5] has as its system endogenous rat mAKAPβ (native mAKAP of adult rat heart extracts and neonatal rat ventricular myocytes).
Data set [6] has as its target PP2A endogenous in HEK293 cells, detected as PP2A-C subunit or as okadaic acid-sensitive phosphatase activity. The data set is described as follows: cell-based or functional assay.
The subject of data set [7] is adult rat ventricular myocytes (ARVM). The data set is described as follows: ARVM morphologic hypertrophy (cell width and length by immunocytochemistry). To be noted: adenoviral expression; for basal ARVM morphology: no drug; for Iso-induced ARVM hypertrophy: 10 μM Iso 24 hours. In kind it is cell-based. The method, then:
Adult rat ventricular myocyte isolation and culture: 2-3 month old rats were anesthetized using Ketamine (80-100 mg/kg) and Xylazine (5-10 mg/kg) IP following 1000 U heparinization for cardiac excision. The heart was transferred immediately into chilled perfusion buffer (NaCl 120 mM, KCl 5.4 mM, Na2HPO4·7H2O 1.2 mM, NaHCO320.0 mM, MgCl2·6H2O 1.6 mM, Taurine 5 mM, Glucose 5.6 mM, 2,3-Butanedione monoxime 10 mM) pre-equilibrated with 95% O2 and 5% CO2. After removal of extraneous tissue, the heart was attached via the aorta to a Harvard Langendorff apparatus cannula. Ca^2+-free perfusion was used to flush out remaining blood with a constant rate of 8-10 mL/min at 37° C. The heart was then digested through circulatory perfusion with 50 mL perfusion buffer containing 125 mg type II collagenase (Worthington, 245 U/mg), 0.1 mg protease (Sigma type XIV) and 0.1% BSA. After perfusion, the atria were removed and the ventricular myocytes dissociated by slicing and repetitive pipetting. The debris was filtered by a 200 μm nylon mesh, and the myocytes collected by one minute centrifugation at 50 g. Ca^2+ concentration in the buffer was gradually recovered to 1.8 mM and the myocytes were resuspended in ACCT medium (M199 Medium (Invitrogen 11150-059), Creatine 5 mM, L-carnitine 2 mM, Taurine 5 mM, HEPES 25 mM, 2,3-Butanedione monoxime 10 mM, BSA 0.2% and 1×Insulin-Transferrin-Selenium Supplement) and plated on 10 μg/ml laminin pre-coated dishes. Cells were washed with ACCT medium 1.5 hours after plating and subjected to adenoviral infection or siRNA transfection, in which 100-200 Multiplicity of Infection (MOI) of adenovirus and 100 nmol/L siRNA mixed with Dharmafect1 (Dharmacon) were used, respectively. Adrenergic agonists were added the next day, with biochemical assay and morphological measurement performed after 24 hours of stimulation.
Immunocytochemistry: Myocytes on coverslips were fixed in 3.7% formaldehyde in PBS for 1 hour, permeabilized with 0.3% Triton X-100, and blocked in PBS containing 0.2% BSA and 1% horse serum. The slides were then sequentially incubated for 1 hour with primary and Alexa fluorescent dye-conjugated specific-secondary antibodies (Invitrogen, 1:1000) diluted in blocking buffer. The slips were washed three times with blocking buffer. 1 μg/mL Hoechst 33258 was included in the last wash stop to label nuclei. Slides were sealed in SlowFade Gold antifade buffer (Invitrogen, S36938) for fluorescent microscopy. Wide-field images were acquired using a Leica DM4000 Microscope.

For data set [8], the target named is T3, myc-tagged, green fluorescent protein (GFP) RBD-fusion protein (mAKAP aa 1694-1833).
T3 chain: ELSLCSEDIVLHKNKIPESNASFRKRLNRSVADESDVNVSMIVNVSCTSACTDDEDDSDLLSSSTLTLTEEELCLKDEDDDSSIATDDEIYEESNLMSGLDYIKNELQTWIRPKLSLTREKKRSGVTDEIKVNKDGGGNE

Data set [9] relates to mAKAPβ-PP2A association. The data set is described as follows: Co-immunoprecipitation of endogenous mAKAPβ-PP2A in myocytes. To be noted: NRVM infected with adenovirus. In kind it is cell-based, rat. The method, then:
Neonatal Rat Ventricular Myocyte Culture: 1-3 day old Sprague-Dawley rats were decapitated, and the excised hearts placed in 1× ADS Buffer (116 mM NaCl, 20 mM HEPES, 1 mM NaH2PO4, 5.5 mM glucose, 5.4 mM KCl, 0.8 mM MgSO4, pH 7.35). The atria were carefully removed and the blood washed away. The ventricles were minced and incubated with 15 mL 1× ADS Buffer containing 3.3 mg type II collagenase (Worthington, 230 U/mg) and 9 mg Pancreatin (Sigma) at 37° C. with gentle shaking. After 15 minutes, the dissociated cardiac myocytes were separated by centrifugation at 50 g for 1 minute, resuspended in 4 mL horse serum and incubated at 37° C. with occasional agitation. The steps for enzymatic digestion and isolation of myocytes were repeated 10-12 times to maximize yield. The myocytes were pooled and spun down again at 50 g for 2 minutes and resuspended in Maintenance Medium (DMEM:M199, 4:1) supplemented with 10% horse serum and 5% fetal bovine serum. To remove any contaminating fibroblasts, the cells were pre-plated for 1 hour before plating on gelatin-coated tissue culture plastic ware. This procedure yields >90% pure cardiac myocytes. After 1 day culture, the media was changed to maintenance medium containing 0.1 mM bromodeoxyuridine to suppress fibroblast growth. […]

Data set [10] concerns SRF Ser^103. The data set is described as follows: SRF Ser103 phosphorylation in adult rat ventricular myocytes (ARVM). It is filed as cell-based. The settings on record: 10 μM Iso 1 day. The method, then:
Adult rat ventricular myocyte isolation and culture: 2-3 month old rats were anesthetized using Ketamine (80-100 mg/kg) and Xylazine (5-10 mg/kg) IP following 1000 U heparinization for cardiac excision. The heart was transferred immediately into chilled perfusion buffer (NaCl 120 mM, KCl 5.4 mM, Na2HPO4·7H2O 1.2 mM, NaHCO320.0 mM, MgCl2·6H2O 1.6 mM, Taurine 5 mM, Glucose 5.6 mM, 2,3-Butanedione monoxime 10 mM) pre-equilibrated with 95% O2 and 5% CO2. After removal of extraneous tissue, the heart was attached via the aorta to a Harvard Langendorff apparatus cannula. Ca^2+-free perfusion was used to flush out remaining blood with a constant rate of 8-10 mL/min at 37° C. The heart was then digested through circulatory perfusion with 50 mL perfusion buffer containing 125 mg type II collagenase (Worthington, 245 U/mg), 0.1 mg protease (Sigma type XIV) and 0.1% BSA. After perfusion, the atria were removed and the ventricular myocytes dissociated by slicing and repetitive pipetting. The debris was filtered by a 200 μm nylon mesh, and the myocytes collected by one minute centrifugation at 50 g. […]

The source of these data is patent US11938198B2, “Treatment of heart disease by disruption of the anchoring of PP2A” (University of Miami, priority 2019, dated 2024).

Sequence of full-length mAKAP mutant with an internal deletion of residues 2053-2073 comprising the PKA binding site (ΔPKA) (chain, as listed by the source mutant): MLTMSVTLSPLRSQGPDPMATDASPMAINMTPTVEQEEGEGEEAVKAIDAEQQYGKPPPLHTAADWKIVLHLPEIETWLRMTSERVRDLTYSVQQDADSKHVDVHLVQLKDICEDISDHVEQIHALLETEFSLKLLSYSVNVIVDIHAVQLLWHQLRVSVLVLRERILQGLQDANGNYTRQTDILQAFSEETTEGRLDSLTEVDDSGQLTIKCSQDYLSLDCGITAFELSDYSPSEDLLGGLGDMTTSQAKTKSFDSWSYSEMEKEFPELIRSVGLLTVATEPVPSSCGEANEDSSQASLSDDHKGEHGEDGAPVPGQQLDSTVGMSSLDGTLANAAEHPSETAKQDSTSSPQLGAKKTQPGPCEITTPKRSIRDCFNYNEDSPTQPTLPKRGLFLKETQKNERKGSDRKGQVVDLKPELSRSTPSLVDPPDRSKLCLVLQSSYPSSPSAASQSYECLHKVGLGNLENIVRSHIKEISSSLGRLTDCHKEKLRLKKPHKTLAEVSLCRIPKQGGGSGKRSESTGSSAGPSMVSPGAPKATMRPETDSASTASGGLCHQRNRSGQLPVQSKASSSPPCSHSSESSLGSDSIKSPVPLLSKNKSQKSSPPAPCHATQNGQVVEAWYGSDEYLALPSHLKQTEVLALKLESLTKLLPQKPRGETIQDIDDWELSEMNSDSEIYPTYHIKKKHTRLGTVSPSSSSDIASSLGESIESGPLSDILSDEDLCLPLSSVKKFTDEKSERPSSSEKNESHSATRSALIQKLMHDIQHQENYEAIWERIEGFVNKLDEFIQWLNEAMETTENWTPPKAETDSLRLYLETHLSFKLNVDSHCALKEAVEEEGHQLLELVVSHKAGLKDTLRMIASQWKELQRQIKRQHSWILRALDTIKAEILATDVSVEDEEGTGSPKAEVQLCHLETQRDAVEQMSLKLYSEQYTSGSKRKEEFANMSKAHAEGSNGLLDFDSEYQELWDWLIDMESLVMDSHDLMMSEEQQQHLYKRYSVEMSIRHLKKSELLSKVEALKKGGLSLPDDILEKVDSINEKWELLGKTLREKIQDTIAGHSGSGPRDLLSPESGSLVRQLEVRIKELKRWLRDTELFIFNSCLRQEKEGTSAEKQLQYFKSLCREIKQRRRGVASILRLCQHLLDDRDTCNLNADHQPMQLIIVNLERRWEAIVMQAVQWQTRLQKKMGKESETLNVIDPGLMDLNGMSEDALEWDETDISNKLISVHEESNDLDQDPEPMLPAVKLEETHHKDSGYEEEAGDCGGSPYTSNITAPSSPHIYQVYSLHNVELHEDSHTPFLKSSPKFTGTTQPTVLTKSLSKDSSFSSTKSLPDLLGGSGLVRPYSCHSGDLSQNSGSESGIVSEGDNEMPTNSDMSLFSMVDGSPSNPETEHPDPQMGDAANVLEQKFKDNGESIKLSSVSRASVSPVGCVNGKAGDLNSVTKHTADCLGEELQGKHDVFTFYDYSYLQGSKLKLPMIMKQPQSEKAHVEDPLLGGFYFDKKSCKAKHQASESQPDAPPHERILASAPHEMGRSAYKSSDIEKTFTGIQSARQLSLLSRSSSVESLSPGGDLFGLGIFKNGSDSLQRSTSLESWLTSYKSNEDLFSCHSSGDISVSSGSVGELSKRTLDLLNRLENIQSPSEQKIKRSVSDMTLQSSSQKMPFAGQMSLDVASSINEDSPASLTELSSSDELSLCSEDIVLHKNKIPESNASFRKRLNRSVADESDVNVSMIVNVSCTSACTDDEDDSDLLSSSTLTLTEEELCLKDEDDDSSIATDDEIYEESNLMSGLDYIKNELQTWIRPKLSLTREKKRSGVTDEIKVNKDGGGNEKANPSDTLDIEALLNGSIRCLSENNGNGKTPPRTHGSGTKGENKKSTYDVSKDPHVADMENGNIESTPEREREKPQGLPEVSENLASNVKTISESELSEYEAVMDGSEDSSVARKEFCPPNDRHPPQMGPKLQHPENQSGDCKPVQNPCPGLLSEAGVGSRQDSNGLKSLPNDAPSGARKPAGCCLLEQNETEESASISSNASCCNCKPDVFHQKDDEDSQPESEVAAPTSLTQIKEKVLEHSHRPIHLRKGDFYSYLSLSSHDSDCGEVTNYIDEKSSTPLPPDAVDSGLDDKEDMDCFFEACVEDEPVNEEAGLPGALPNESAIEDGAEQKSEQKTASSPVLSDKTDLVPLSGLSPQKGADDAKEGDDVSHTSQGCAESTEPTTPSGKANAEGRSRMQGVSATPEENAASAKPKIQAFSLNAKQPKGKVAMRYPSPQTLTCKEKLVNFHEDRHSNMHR
Sequence of full-length wildtype mAKAP (GFP-tagged) expressed in HEK293 cells (chain, as listed by the source): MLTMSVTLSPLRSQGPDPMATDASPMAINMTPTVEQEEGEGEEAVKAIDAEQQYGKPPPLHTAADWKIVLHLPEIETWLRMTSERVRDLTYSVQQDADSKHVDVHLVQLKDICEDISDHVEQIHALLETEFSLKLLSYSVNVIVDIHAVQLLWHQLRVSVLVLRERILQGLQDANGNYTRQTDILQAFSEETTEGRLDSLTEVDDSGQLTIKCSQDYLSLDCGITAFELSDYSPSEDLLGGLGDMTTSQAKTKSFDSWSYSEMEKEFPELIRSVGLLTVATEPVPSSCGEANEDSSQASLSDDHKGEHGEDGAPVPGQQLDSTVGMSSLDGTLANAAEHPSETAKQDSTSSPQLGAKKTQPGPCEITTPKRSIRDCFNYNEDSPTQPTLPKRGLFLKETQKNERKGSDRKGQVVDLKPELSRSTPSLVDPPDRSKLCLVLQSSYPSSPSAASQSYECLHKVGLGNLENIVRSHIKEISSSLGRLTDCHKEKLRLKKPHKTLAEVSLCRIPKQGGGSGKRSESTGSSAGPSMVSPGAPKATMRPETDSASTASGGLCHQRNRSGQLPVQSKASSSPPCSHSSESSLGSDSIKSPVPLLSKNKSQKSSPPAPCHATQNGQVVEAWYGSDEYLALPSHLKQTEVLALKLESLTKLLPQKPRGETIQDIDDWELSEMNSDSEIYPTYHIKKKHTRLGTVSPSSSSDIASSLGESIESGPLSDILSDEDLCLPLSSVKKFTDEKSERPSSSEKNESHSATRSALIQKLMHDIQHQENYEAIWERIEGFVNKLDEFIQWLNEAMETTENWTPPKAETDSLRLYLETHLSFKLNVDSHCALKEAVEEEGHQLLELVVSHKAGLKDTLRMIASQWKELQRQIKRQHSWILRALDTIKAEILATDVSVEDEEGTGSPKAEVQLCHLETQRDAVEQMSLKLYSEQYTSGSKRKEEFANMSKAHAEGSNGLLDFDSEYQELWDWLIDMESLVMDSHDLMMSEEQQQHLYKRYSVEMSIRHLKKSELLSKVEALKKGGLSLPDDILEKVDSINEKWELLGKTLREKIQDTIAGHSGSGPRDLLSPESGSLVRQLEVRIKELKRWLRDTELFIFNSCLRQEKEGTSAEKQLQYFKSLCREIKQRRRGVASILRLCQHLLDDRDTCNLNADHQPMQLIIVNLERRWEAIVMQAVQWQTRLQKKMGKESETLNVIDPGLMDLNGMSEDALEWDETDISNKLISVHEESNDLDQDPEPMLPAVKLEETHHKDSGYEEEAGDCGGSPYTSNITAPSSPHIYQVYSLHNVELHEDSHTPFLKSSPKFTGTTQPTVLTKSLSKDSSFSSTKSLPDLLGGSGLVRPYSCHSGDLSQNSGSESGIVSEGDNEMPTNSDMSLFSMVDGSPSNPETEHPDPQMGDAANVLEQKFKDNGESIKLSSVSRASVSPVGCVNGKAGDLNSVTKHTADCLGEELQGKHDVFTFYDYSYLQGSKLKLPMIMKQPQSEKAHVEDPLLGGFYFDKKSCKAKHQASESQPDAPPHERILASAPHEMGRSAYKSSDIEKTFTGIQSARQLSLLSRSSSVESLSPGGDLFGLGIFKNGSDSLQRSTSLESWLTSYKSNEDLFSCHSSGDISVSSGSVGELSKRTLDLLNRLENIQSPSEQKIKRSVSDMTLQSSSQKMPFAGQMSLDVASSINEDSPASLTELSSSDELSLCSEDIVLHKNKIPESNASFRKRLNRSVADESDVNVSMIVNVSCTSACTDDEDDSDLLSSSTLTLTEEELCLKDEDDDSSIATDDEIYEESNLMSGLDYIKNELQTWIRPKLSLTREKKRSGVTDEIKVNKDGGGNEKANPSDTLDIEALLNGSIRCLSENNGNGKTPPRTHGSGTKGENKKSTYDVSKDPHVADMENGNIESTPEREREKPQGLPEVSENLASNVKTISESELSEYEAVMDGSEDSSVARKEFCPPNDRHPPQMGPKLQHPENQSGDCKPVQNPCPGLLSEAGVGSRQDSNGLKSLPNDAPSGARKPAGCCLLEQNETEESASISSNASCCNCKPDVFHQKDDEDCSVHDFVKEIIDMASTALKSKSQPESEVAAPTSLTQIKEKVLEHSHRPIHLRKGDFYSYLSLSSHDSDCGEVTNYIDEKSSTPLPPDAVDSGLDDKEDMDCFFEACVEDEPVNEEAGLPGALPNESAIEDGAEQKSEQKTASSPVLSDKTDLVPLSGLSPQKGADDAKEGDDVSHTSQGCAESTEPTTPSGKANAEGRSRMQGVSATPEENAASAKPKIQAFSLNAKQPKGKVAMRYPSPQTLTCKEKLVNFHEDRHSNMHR

For the molecule “PKA (cAMP-dependent protein kinase) endogenous in HEK293 cells”, the “phosphatase activity in mAKAP immunoprecipitates after Fsk/IBMX” value in data set [1] is listed as “cAMP elevation increased phosphatase activity in mAKAP complexes 1.7 fold”; in data set [2], “no increase was obtained when B56δ was co-expressed with the mAKAP ΔPKA mutant scaffold”. For the same molecule, the “B56δ Ser-566 phosphorylation in mAKAP immunoprecipitates” value in data set [2] was “B56δ phosphorylation was detected only after FSK/IBMX treatment and only when B56δ was co-expressed with wildtype mAKAP and not the ΔPKA mutant”.

In the case of “PP2A endogenous in HEK293 cells, detected as PP2A-C subunit or as okadaic acid-sensitive phosphatase activity”, in data set [3], the “baseline phosphorylation of mAKAP-bound PDE4D3 Ser-54” value is on record as 0.49±0.19 fold of the level obtained with OA.

As for “endogenous PP2A of rat heart and rat ventricular myocytes, detected as PP2A catalytic subunit (PP2A-C)”, the “Iso-induced SRF Ser103 phosphorylation in ARVM” value in [4] is recorded as “PBD expression potentiated the induction of SRF Ser^103 phosphorylation in ARVM stimulated with the β-adrenergic isoproterenol”. Besides, in data set [5], the “phosphatase activity associated with mAKAP immunoprecipitates from heart extracts ([32P]histone substrate)” value is on record as 3-fold enrichment of phosphatase activity over control IgG immunoprecipitates.

“myc-tagged rat mAKAP 1286-2083 (lacking the PP2A binding site) (from UniProt Q9WVC7 1286-2083)” registered a PDE4D3 activity in myc-tag immunoprecipitates in data set [6] of 30 % higher.

B1: endogenous RSK3 of rat ventricular myocytes (protein)
chain: MELNMKKFTVRRFFSVYLRKKSRSKSSSLSRLEEEGIVKEIDISSHVKEGFEKADPSQFELLKVLGQGSYGKVFLVRKVTGSDAGQLYAMKVLKKATLKVRDRVRSKMERDILAEVNHPFIVKLHYAFQTEGKLYLILDFLRGGDLFTRLSKEVMFTEEDVKFYLAELALALDHLHGLGIIYRDLKPENILLDEEGHIKITDFGLSKEAIDHDKRAYSFCGTIEYMAPEVVNRRGHTQSADWWSFGVLMFEMLTGSLPFQGKDRKETMALILKAKLGMPQFLSAEAQSLLRALFKRNPCNRLGAGVDGVEEIKRHPFFVTIDWNKLYRKEIKPPFKPAVGRPEDTFHFDPEFTARTPTDSPGVPPSANAHHLFRGFSFVASSLVQEPSQQDVPKAPIHPIVQQLHGNNIHFTDGYEIKEDIGVGSYSVCKRCVHKATDAEYAVKIIDKSKRDPSEEIEILLRYGQHPNIITLKDVYDDGKYVYLVMELMRGGELLDRILRQRCFSEREASDVLYTIARTMDYLHSQGVVHRDLKPSNILYMDESGNPESIRICDFGFAKQLRAENGLLMTPCYTANFVAPEVLKRQGYDAACDVWSLGILLYTMLAGFTPFANGPDDTPEEILARIGSGKYALSGGNWDSISDAAKDVVSKMLHVDPQQRLTAVQVLKHPWIVNREYLSQNQLSRQDVHLVKGAMAATYFALNRTPQAPRLEPVLSSSLAQRRGMKRLTSTRL
With B1, in [7], the “basal ARVM morphology” value is on record as “selectively increased the width”. The “PE-induced SRF Ser103 phosphorylation in NRVM and ARVM” value in data set [8] is “inhibited PE-induced SRF Ser^103 phosphorylation in both NRVM and primary adult rat ventricular myocyte cultures”.

B2: PBD: myc-tagged mAKAP aa 2134-2314 fragment, PP2A anchoring disruptor, expressed by adenovirus (protein)
chain: T2 sequence
modifications: myc-tagged rat mAKAP PBD
notes: myc-tagged mAKAP aa 2134-2314 fragment, PP2A anchoring disruptor, expressed by adenovirus
As to B2, in [7], the “Iso-induced ARVM hypertrophy” value is “attenuated the eccentric hypertrophy” and the “basal ARVM morphology” value was “no effect”. In addition, in [7] (listed as PDB), the “Iso-induced ARVM hypertrophy” value is on record as “promoted ARVM concentric hypertrophy”. In addition, in data set [7] (20 μM PE 24 hours), the “PE-induced ARVM hypertrophy” value was “did not enhance nor diminish”. In addition, the “endogenous mAKAPβ-PP2A association” value in [9] is listed as “competed endogenous mAKAPβ-PP2A association”. Besides, in data set [10], the “Iso-induced SRF Ser^103 phosphorylation” value is “potentiated the induction of SRF Ser^103 phosphorylation”.
